Broadly, the Kd is the concentration at which binding is half-saturated. The low end stands for a tighter complex, the high end for a looser complex.

The text below walks through data of CN110028578A.

For assay [1], the target named is A/Guangdong/17SF003/2016 H7N9 HA extracellular domain 11-505 (H3 numbering) with C-terminal T4 trime (Influenza A virus A/Guangdong/17SF003/2016 H7N9). The experiment in a line: BLI, biotinylated HA on streptavidin probe, antibody in solution.
In assay [2] the target is A/Shanghai/2/2013 H7N9 HA extracellular domain 11-505 (H3 numbering) with C-terminal T4 trimerisatio (Influenza A virus A/Shanghai/2/2013 H7N9). The assay is described as above.

B1: P52E03 IgG (antibody, V domains shown)
VH: QVQLVQSGGGLVQPGRSLRLSCAASGFTFDDYAMHWVRQAPGKGLEWVSGISWNSGSIGYADSVKGRFTISRDNAKNSLYLQMNSLRAEDTALYYCAKGLNSSGWYVYFDYWGQGTLVTVSS
VL: EIVLTQSPGTLSLSPGERATLSCRASQTVARNYLAWYQQKPGQAPRLLMYDPSSRPAGIPDRFSGSGSGTDFTLTISRLEPEDSAVYFCQQYGSPPLTFGGGTKIEIKR
Consider B1, for which the Kd in assay [1] amounted to 10.5 nM; in assay [2], 157 nM.
